# In the nanobody polyreactivity screen of Harvey et al. (2022):
# Test: yeast display, Sf9 membrane polyspecificity reagent, FACS + sequencing; frameworks hold sequencing errors
# Outline: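 Sorting gates, low and high (top ~1%), were placed on anti-HA fluorescence to track expression and on streptavidin fluorescence to track reagent binding. A clone's polyreactivity label is taken from the gate it came out of. The reagent was 10% biotinylated, detergent-solubilized Sf9 membrane, applied for 1 hour at 4 °C to galactose-induced yeast display cells.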
row,Sequence,polyreactivity (PSR sort gate)
1,QVQLVESGGGLVQAGGSLRFSCAASGFTFYPNTMGWYRQAPGTERELVAAISSSGGRTYYADSVKGRFTISRDNAKNTVYLQMNSLKPEDNAVYYCNAAKWLTSGGLDYWGQGTQVTVSS,high polyreactivity
2,QVQLVESGGGLVQAGGSLRFSCAASGIIFYYKTMGLYRQAPGKERELVASITWSGDTTYYAYSVKGRYTISRDNAKNSVYLQMNSLKPEDTAVYYCAAACYWYPSYSSYLGMYYWGQGTKVTVSS,low polyreactivity
3,QVQLVESGGGLVQAGGSLRFSCAASGLTFNHNAMGWYRQAPGKERELVAAISRRGGSTYYADSVKGRFTISRDNAKNTVYVQMNSLKPEDTAVYYCNKDFPTLYSRGRYIYWGQGTQVTVSS,high polyreactivity
4,QVQLVESGGGLVQAGGSLRFSCAASGNIIDLYAMGWYRQARGQERVLVAAITRSSSRTYYADSVKGRFTISRDIAKNTVYLQMNSLKPEDTAVYYCRANQVNRLDYWGQGTQVTVSS,high polyreactivity
5,QVQLVESGGGLVQAGGSLRFSCAASGRIFPAYAMGWYRQAPGKEREWVDAISRRGGSTYYADTVKGRFTISRDNAKNTVYLQMNSLNPEDTAVYYCAKEVWDSLGYPHSGDYWGQGTQVTVSS,low polyreactivity
6,QVQLVESGGGLVQAGGSLRFSCAASGRIFWYYVMGWDRQAPGKEREFVASISSGGSTYYADSVKGRFTISRDNANNTVYLQMNSLKPEDTAVYYCNAYVYGQRVWYDYWGQGTQVTVSS,high polyreactivity
7,QVQLVESGGGLVQAGGSLRFSCAASGRTFQYYTMGWSRQAPGKEREFVAAIRDSGGSTYYADSVKGRFTISRDNAKNTVYLQMNSLKPEDTAVYYCAAYRPRKYDYWGQGTQVTVSS,high polyreactivity
8,QVQLVESGGGLVQAGGSLRFSCAASGRTFYPYAMGWYRQAPGKERELVAAINGGGRTYYADSVKGRFTISRDNAKNTVYLQMNSLKPEDTAVYYCATRYPAWRYDYNYWGQGTQVSVSS,high polyreactivity
9,QVQLVESGGGLVQAGGSLRFSCAASGSIFITYAMGWSRQAPGKERELVAAIRDSGDRTYYADSVKGRFTISRDNAKNTVYLQMNSLKPEDTAVYYCNARWQEPLKYDYWGQGTQVTVSS,low polyreactivity
10,QVQLVESGGGLVQAGGSLRFSCAASGSIFSVYAMGWYRQAPGKEREWVAAITSGTYTYADSVKGRFTISRDNAKNSVYLQMNSLKAEDTAVYYCAAESGSPGYYYWGQGTQVTVST,low polyreactivity
11,QVQLVESGGGLVQAGGSLRFSCAASGSIFYGYTMGWYRQAPGKERELVAGISTYYADSVKGRFTISRDTAKNTVYLQMNSLKPEDTAVYYCAADYSSPTSEYDYWGQGTQVTVSS,low polyreactivity
12,QVQLVESGGGLVQAGGSLRFSCAASGSTFFSYAMGWYRQAPGKERELVATIRGSAGRTYYADSVKGRFTISRDHANYTVYLQMNSLKPEDTAVYYCARRYWPGSAYWIYDYWGQGTQVTVSS,high polyreactivity
13,QVQLVESGGGLVQAGGSLRFSCAASGSTFSYYAMGWYRQAPRKEREFVAAMSWNGGSTYYADSVKGRYTISRDNAKNTVYLHMNSLKPEDTEVYYCAADFKYGYSHGFRQRLYDYWGQGTQVTVSS,low polyreactivity
14,QVQLVESGGGLVQAGGSLRFSCAASGSTFVYNAMGWYRQAAGQERELVAVITYRGGRTYYADSVKGRFTISRDNAKNTVYLQINSLKPEDTAVYYCAAQTFRYRKKLDYWGQGTQVTVSS,high polyreactivity
15,QVQLVESGGGLVQAGGSLRFSCAASGSTFYYYAMGWYRQAPGKERELVAAINTSGGITYYADSVKGRFTISRDNAKNTVYLQMNSLKPEDTAVYYCATQLWDRYGFGYWGQGTQVTVSS,high polyreactivity
16,QVQLVESGGGLVQAGGSLRFSCAASGTFVPYAMGWYRQAPGKEMELVARITWRGGSTYYADSVKGRFTISRDNANNTVYLQMNSLKPEETAVYYCATVSDNRYYYWGQGTQVTVSS,low polyreactivity
17,QVQLVESGGGLVQAGGSLRFSCADSGSIFVRYAMGWYRQAPGKERELVAAISVRGGRTYYADSVKGRFTISRDNAKNTVYLQMNSLKPEDTAVYYCAAQLYYYYTYVPPGGYWGQGTQVTVSS,high polyreactivity
18,QVQLVESGGGLVQAGGSLRFSCDASGRSFYINAMGWYRQAPGKERELVAAITWSGGRTYYADSVKGRFTISRDNAKNTVYLQMNSLKPEDTAVYYCNTRSYSFYVPYRYDYWGQGTHVTVSS,high polyreactivity
19,QVQLVESGGGLVQAGGSLRFTCAASGRTFIGYAMGWYRHAPGKERELVATISVSGGSTYYADSVKGRYTISRDNAKKTVYLHMNSLKPEDTAVYYCAKAYLRYYDGPYDYWGQGTQVTLSS,low polyreactivity
20,QVQLVESGGGLVQAGGSLRIICAASGRTFSYYAMGWYRQAPGKERELVAAITAGGNTYYADSVKGRFTISRDNAKNTVYLQMNSLKAEDTAVYYCAATYYWAWGGVYHSEFDYWGQGTQETVSS,low polyreactivity
21,QVQLVESGGGLVQAGGSLRIICAASGSTLGYNAMGWYRQAPGKERELVAAISSDGGSTYYADSVKGRFTISRDNAKNTVYLQMNSLKPEDTAVYYCAAYYYTPGYGSWGQGTQVTVSS,low polyreactivity
22,QVQLVESGGGLVQAGGSLRIRCAASGGIFPPNAMGWYRHPPGKERELVASISSDGSTNYADSVKGRFTISRDNAKNNVILQMNSLKPEDTAVFYCNATHEAFELDYWGQGTQVNVSS,low polyreactivity

row,Sequence,polyreactivity (PSR sort gate)
1,QVQLVESGGGLVQAGGSLRIRCAASGLIFGFYAMGWYRQAPGKERELVAAINSGGITYYADSVKGRFTISRDNAKNTVYLQMNSLKPEDTAVYYCNKDSHISTAYDYWGQGTQVTVSS,low polyreactivity
2,QVQLVESGGGLVQAGGSLRIRCAASGRIFPYYAMGWYRQAPGKERDLVATITSGGSTYYADTVKGRFTISRDNSKNTVYLQMKSLKPEDTAVYYCAARYPSIYYYRYDFWGQGTQVTVSS,high polyreactivity
3,QVQLVESGGGLVQAGGSLRISCAASGFIFWIYAMGWYRQAPGKEREFVAVITYRGDTTYYADSVKGRFTISRDNAKNTVYLQMNSLKPEDTAVYYCAAYTVQKYGYWGQGTQVTVSS,low polyreactivity
4,QVQLVESGGGLVQAGGSLRISCAASGFTFALYAMGWYRQAPGKERELVAAITRRGGSTYYADSVKGRFTISRDNAKNTVYLQMNSLKPEDTAVYNCAKRERAIKVSRYDSHDYWGQGTQVTVSS,high polyreactivity
5,QVQLVESGGGLVQAGGSLRISCAASGFTFGVYAMGWYRPAPGKEREFVASISFSGGRTYYSDSVKGRFTISRDNAKNTVYLQMNSLKPEDTAVYYCAKRWSADDYWGQGTQVTVSS,high polyreactivity
6,QVQLVESGGGLVQAGGSLRISCAASGFTFKRYAMGWYRQAPGKERELVAAITWRGGSTYYADSVKGRFTISRDNAKNTVYLQMNSLKPEDTAVYYCAAYSYPYWQKRPYDYWGQGTQVTVSS,high polyreactivity
7,QVQLVESGGGLVQAGGSLRISCAASGFTFRNYAMGWYRQAPGKEREFVASISFAGGRTYYADSVKGRFTISRDNAKNTVYLQMNSLKPEDTAVYYCAKKSYSKYDYWGQGTQVTVSS,high polyreactivity
8,QVQLVESGGGLVQAGGSLRISCAASGFTFWLYAMGWYRQAPGKERELVATISWSGGSTYYADSVKGRFTISRDNAKNTVYVQMNSLKPEDTAVYYCATRYRSYSVFGYGYWGQGTQVTVSS,high polyreactivity
9,QVQLVESGGGLVQAGGSLRISCAASGFTFYYNAMGWYRQAPGKERELVASISSNGTSTYYADSVKGRFTISRDNAKNTVYLQMNSLKPEDTAVYYCNVDIFDPRTYDYWGQGTQVTVSS,low polyreactivity
10,QVQLVESGGGLVQAGGSLRISCAASGGTFVPYAMGRSRQAPGKERELVARISKRGGTTYYADSVKGRFTISRDIGKNTVYLQMNSLKPEDTAVYYCAAVLPARGYYWGLGTQVTVSS,high polyreactivity
11,QVQLVESGGGLVQAGGSLRISCAASGIIFSPYVMGWYRQAPGKERELVAAITTGDSTNYADSVKGRFTISRDNAKNTVYLQMKSLKPEDSAVYYCNADLYVGYLYYLFDYWGQGTQVSVSS,low polyreactivity
12,QVQLVESGGGLVQAGGSLRISCAASGIIFSVYAMAWYRQAPGKERELVAAISYSGGRTYYADSVKGRFTISRDNAKNTVYLQMNSLKPEDTAVYYCAAGFSLYLGFEYWGQGTQVTVSS,high polyreactivity
13,QVQLVESGGGLVQAGGSLRISCAASGIIFSYYAMGWYRQAPGKERELVAAIRENGGSTYYADSVKGRFTISRDNAKNTVYLQMNSLKPEDTAVYYCAVDTTYYAGYEYDYWGQGTQVTVSS,low polyreactivity
14,QVQLVESGGGLVQAGGSLRISCAASGITFKKNDMGWYRQAPGKERELVAAISGRGGSTYYADSVKGRFTISRDNAKNTVYLQMNSLKPEDTAVYYCAADNFKGDSYGTGTYDYWGQGTQVTVSS,high polyreactivity
15,QVQLVESGGGLVQAGGSLRISCAASGITFYANTMGWYRQAPGKEREFVAAISGIGGSTYYADSVKGRFAISRDNAKNTVYLQMNSLKPEDPAVYYCNADVYYFLFGTFDYWGQGTQVTVSS,low polyreactivity
16,QVQLVESGGGLVQAGGSLRISCAASGITYKEYAMGWYRQAPGKERELVAAISISGGSTYYADSVKGRFTISRDNAKNTFYLQMNSLKPEDTAVYFCAADYAEYEYGDYYWGQGTQVTVSS,low polyreactivity
17,QVQLVESGGGLVQAGGSLRISCAASGLIFNFNALGWYRQAPGKERELVAAITRSGSTDYADSVKGRFTISRDNAKNTVYLQLNSLKPEDTAVYYCAAEFYLRRFKVTKRYWFDYWGQGTQVTVSS,low polyreactivity
18,QVQLVESGGGLVQAGGSLRISCAASGLTLTSNDMGWYRQAPGKEREFVASITWSGGSTSYADSVKGRFTISRDNAKNTVYLQMNSLKPEDTAVYYCAARPRYFSKSWRGYYYWGQGTQVNVSS,high polyreactivity
19,QVQLVESGGGLVQAGGSLRISCAASGLTSYSYAMGWYRQAPGKERELVAAITVNGGRTYYADSVKGRFTISRDNAKNTVYLQMNSLKPEDTAVYYCAAREVTGRPRSYYYWGQGTQVTVSS,low polyreactivity
20,QVQLVESGGGLVQAGGSLRISCAASGNIIRKYAMGWYRQAPGKEREFVAAISSSGGRTYYADSVKGRFTISRDNAKNTVYLQMNSLKPEDTAGYYCARPYSYAYVLGDYWGQGTQVTVSS,high polyreactivity
21,QVQLVESGGGLVQAGGSLRISCAASGRIFFIKAMGWYRQAPGKERELVAAIRRDTRTYYADSVKGRFTISRDNAKNTVYLQMNSLKPEDTAVYYCAADDPWHYDFDYWGQGTQVTVSS,low polyreactivity
